Measured values from US20250121082A1 (SHANDONG BOAN BIOTECHNOLOGY, published 2025).
Where two headings read alike, the source gives them in different places.

How the values were obtained:
Experiment in all cases: cell-based or functional assay
[1] = biological target: T1, CD228 on cells stably expressing exogenous CD228 gene (MC38-CD228, A375-CD228, A549-CD228) (UniProt P08582 20-709)
T1 sequence (looked up): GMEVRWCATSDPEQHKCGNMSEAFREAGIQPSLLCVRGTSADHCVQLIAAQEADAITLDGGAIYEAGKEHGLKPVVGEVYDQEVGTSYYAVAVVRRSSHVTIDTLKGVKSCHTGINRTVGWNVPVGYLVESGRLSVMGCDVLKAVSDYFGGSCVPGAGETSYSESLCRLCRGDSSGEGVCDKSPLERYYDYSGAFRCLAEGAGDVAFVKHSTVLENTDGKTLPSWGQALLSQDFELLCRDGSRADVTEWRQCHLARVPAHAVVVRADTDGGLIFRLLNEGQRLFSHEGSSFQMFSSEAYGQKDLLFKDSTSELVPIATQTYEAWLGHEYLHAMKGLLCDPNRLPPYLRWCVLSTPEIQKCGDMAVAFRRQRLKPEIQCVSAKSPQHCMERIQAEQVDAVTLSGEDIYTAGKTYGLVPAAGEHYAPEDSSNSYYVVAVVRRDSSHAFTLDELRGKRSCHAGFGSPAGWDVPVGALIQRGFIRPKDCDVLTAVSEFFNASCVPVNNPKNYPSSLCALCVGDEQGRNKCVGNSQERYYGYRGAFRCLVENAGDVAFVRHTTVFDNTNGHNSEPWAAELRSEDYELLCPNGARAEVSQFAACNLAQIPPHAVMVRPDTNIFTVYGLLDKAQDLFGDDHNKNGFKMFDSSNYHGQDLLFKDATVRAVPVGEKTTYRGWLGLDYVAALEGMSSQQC

[2] = biological target: T2, CD228 protein on human melanoma SK-MEL-5 cells (human, UniProt P08582 20-709)
T2 sequence (looked up): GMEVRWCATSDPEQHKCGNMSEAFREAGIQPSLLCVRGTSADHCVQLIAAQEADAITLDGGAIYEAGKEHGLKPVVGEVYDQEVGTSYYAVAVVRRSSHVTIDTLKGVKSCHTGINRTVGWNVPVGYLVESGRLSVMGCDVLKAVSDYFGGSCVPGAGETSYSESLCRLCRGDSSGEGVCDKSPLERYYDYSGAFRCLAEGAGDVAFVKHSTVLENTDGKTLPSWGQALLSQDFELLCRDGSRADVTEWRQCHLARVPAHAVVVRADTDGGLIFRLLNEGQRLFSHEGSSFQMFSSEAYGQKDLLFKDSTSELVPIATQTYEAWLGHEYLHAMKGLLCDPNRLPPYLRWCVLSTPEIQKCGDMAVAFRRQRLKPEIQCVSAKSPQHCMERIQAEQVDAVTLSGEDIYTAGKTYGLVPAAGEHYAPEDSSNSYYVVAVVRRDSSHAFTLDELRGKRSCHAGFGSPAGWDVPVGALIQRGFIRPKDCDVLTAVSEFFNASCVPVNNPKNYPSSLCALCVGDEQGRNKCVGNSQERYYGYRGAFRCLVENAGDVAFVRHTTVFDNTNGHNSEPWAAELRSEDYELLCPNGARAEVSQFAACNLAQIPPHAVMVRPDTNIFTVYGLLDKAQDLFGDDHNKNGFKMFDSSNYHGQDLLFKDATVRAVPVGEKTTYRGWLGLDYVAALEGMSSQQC

[3] = biological target: T1, CD228 on cells stably expressing …; remark: listed apart in the source

IC50 (ng/mL), inhibition of A375-CD228 cell proliferation [1]: 61.8 ng/mL
IC50 (ng/mL), inhibition of MC38-CD228 cell proliferation [1]: 102 ng/mL
IC50 (ng/mL), inhibition of SK-MEL-5 cell proliferation [2]: 11.5 ng/mL
IC50 (ng/mL), inhibition of A375-CD228 cell proliferation [3]: 13.9 ng/mL
IC50 (ng/mL), inhibition of A549-CD228 cell proliferation [3]: 15.2 ng/mL
B1: CA149-BNLD11 (antibody, human IgG1, kappa, V domains shown)
VH: EVQLVESGGGVVQPGRSLRLSCAASGFTFSSYAMHWVRQAPGKGLEWVAVISFDGSNKYYTDSVKGRFTISRDNSKNTLYLQMNSLRAEDTAVYYCAREVPYYYGSGPFDYWGQGTLVTVSS
VL: EIVLTQSPATLSVSPGERATLSCRASQSVSSNLAWYQQKPGQAPRHLIDGASSRASGIPDRFSGSGSGTDFTLTISRLEPEDFAVYYCQQYGSSPPFTFGPGTKVDIKR
modifications: BNLD11 linker-drug coupled to the TCEP-reduced antibody; sites not stated; BNLD11 linker-drug (MC-β-Ala-(glucuronide)PAB-MMAE) coupled to the TCEP-reduced antibody, average DAR 4.1; sites not stated
